Assay results: US11891634B2, “PDE5A destabilizing domains” (The Board of Trustees of the Leland Stanford Junior …, priority 2017, dated 2024)

What was measured:
[1] = system: HCT116 cells transduced with the constructs; experiment: Response to Sildenafil, GFP expression by flow cytometry in HCT116; type: cell-based, human; conditions: for MFI / Stabilization ratio with Sildenafil: 48 hours, HCT116
Experimental: Similar experiments were performed in HCT116 cells using sildenafil. The above-mentioned DDs were cloned as AcGFP fusion into pELNS vector carrying mCherry marker and packaged in lentiviral vectors. HCT116 cells were transduced with the constructs and stable integrants were selected by cell sorting using mCherry marker. Cells were treated with sildenafil at the following μM concentrations: 0.01, 0.02, 0.05, 0.14, 0.41, 1.23, 3.7, 11.11, 33.33, and 100 for a duration of 48 hours. The fluorescence was analyzed by flow cytometry and the mean fluorescence intensity was calculated for all samples. […] The stabilization ratios are shown in Table 24 and Table 25 and the basal expression is show in Table 26.

[2] = system: HCT 116 cells transduced with the PDE5A DD derived GFP constructs; experiment: Response to Tadalafil, GFP expression by FACS in HCT116; type: cell-based, human; conditions: for MFI / Stabilization ratio with Tadalafil: 48 hours, HCT116
Experimental: PDE5AN (#3) was cloned as AcGFP fusion into pELNS vector carrying mCherry marker and packaged in lentiviral vectors. HCT116 cells were transduced with the construct and stable integrants were selected by cell sorting using mCherry marker. Cells were treated with vehicle (dimethyl sulfoxide, DMSO) or varying doses of Tadalafil (TDF) for 48 hrs with doses ranging from 0.01 μM to 100 μM. Following the treatment, cells were analyzed for GFP expression using FACS. Basal expression was calculated as the ratio of GFP signal in the absence of ligand for a given cell line to auto fluorescence of parental HCT-116 cells. Stabilization ratio was calculated as the ratio of the GFP signal observed in the presence of stabilizing ligand to the signal from the same cell line in the absence of ligand.
HCT 116 cells transduced with the PDE5A DD derived GFP constructs were also tested with increasing doses of Tadalafil. The HCT116 cells were incubated for 48 hours with Tadalafil starting at dose 0.01 μM to 100 μM. The GFP intensity of the Tadalafil treated samples was compared to the parental untransduced HCT116 and DMSO treated cells for each construct. The mean fluorescence intensity was calculated for each sample and used to calculate the stabilization ratios as well as the basal expression for each construct. The stabilization ratios are shown in Table 19 and Table 20 and the basal expression is show in Table 21.

B1: PDE5AC (#42): AcGFP fused to C-terminal DD 535-860 of PDE5A (E535D, K555R, F564S, Q589R, K630R, C677R, N742S, I799T, M816A), SEQ ID NO. 28 (protein)
chain: DETRELQSLAAAVVPSAQTLRITDFSFSDSELSDLETALCTIRMFTDLNLVQNFRMKHEVLCRWILSVKKNYRKNVAYHNWRHAFNTAQCMFAALRAGKIQNKLTDLEILALLIAALSHDLDHRGVNNSYIQRSEHPLAQLYRHSIMEHHHFDQCLMILNSPGNQILSGLSIEEYKTTLKIIKQAILATDLALYIKRRGEFFELIRKSQFNLEDPHQKELFLAMLMTACDLSAITKPWPIQQRIAELVATEFFDQGDRERKELNTEPTDLMNREKKNKIPSAQVGFIDAICLQLYEALTHVSEDCFPLLDGCRKNRQKWQALAEQQ
modifications: /note=“Description of Artificial Sequence Synthetic Destabilizing Domain (DD)”
MFI ([1]; DMSO (no Sildenafil)): 23943 | Stabilization ratio with Sildenafil ([1]; Sildenafil 0.01 μM vs DMSO): 1.0 | MFI ([1]; Sildenafil 0.01 μM): 23295 | Stabilization ratio with Sildenafil ([1]; Sildenafil 0.02 μM vs DMSO): 1.0 | MFI ([1]; Sildenafil 0.02 μM): 23606 | Stabilization ratio with Sildenafil ([1]; Sildenafil 0.05 μM vs DMSO): 1.0 | MFI ([1]; Sildenafil 0.05 μM): 24817 | Stabilization ratio with Sildenafil ([1]; Sildenafil 0.14 μM vs DMSO): 1.2 | MFI ([1]; Sildenafil 0.14 μM): 29495 | Stabilization ratio with Sildenafil ([1]; Sildenafil 0.41 μM vs DMSO): 1.7 | MFI ([1]; Sildenafil 0.41 μM): 40817 | Stabilization ratio with Sildenafil ([1]; Sildenafil 1.23 μM vs DMSO): 2.6 | MFI ([1]; Sildenafil 1.23 μM): 63410 | Stabilization ratio with Sildenafil ([1]; Sildenafil 3.70 μM vs DMSO): 3.8 | MFI ([1]; Sildenafil 3.70 μM): 91798 | Stabilization ratio with Sildenafil ([1]; Sildenafil 11.11 μM vs DMSO): 5.3 | MFI ([1]; Sildenafil 11.11 μM): 127187 | Stabilization ratio with Sildenafil ([1]; Sildenafil 33.33 μM vs DMSO): 6.3 | MFI ([1]; Sildenafil 33.33 μM): 149906 | Stabilization ratio with Sildenafil ([1]; Sildenafil 100.00 μM vs DMSO): 6.9 | MFI ([1]; Sildenafil 100.00 μM): 164269 | Basal expression ([1]; Table 26, MFI with DMSO / parental HCT116, Sildenafil experiment): 18.6 | MFI ([2]; DMSO (no Tadalafil)): 22601 | Basal expression ([2]; Table 21, MFI with DMSO / parental HCT116, Tadalafil experiment): 17.66 | Stabilization ratio with Tadalafil ([2]; Tadalafil 0.01 μM vs DMSO): 1.0 | MFI ([2]; Tadalafil 0.01 μM): 22787 | Stabilization ratio with Tadalafil ([2]; Tadalafil 0.02 μM vs DMSO): 1.0 | MFI ([2]; Tadalafil 0.02 μM): 23274 | Stabilization ratio with Tadalafil ([2]; Tadalafil 0.05 μM vs DMSO): 1.0 | MFI ([2]; Tadalafil 0.05 μM): 23278 | Stabilization ratio with Tadalafil ([2]; Tadalafil 0.14 μM vs DMSO): 1.1 | MFI ([2]; Tadalafil 0.14 μM): 24532 | Stabilization ratio with Tadalafil ([2]; Tadalafil 0.41 μM vs DMSO): 1.2 | MFI ([2]; Tadalafil 0.41 μM): 26765 | Stabilization ratio with Tadalafil ([2]; Tadalafil 1.23 μM vs DMSO): 1.6 | MFI ([2]; Tadalafil 1.23 μM): 35325 | Stabilization ratio with Tadalafil ([2]; Tadalafil 3.7 μM vs DMSO): 2.6 | MFI ([2]; Tadalafil 3.7 μM): 59821 | Stabilization ratio with Tadalafil ([2]; Tadalafil 11.11 μM vs DMSO): 4.1 | MFI ([2]; Tadalafil 11.11 μM): 92400 | Stabilization ratio with Tadalafil ([2]; Tadalafil 33.33 μM vs DMSO): 5.4 | MFI ([2]; Tadalafil 33.33 μM): 122658 | Stabilization ratio with Tadalafil ([2]; Tadalafil 100 μM vs DMSO): 6.2 | MFI ([2]; Tadalafil 100 μM): 139002
